Numbering of substitutions follows the chain as printed. In names and notes the source's numbering stands.
T1: human FcγRIIaR extracellular domain, His-tagged (human, UniProt P12318 34-217)
T1 construct: also called human FcgRIIaR; FcγRIIa (type R); not shown: His-tag added to the C-terminus
T1 chain: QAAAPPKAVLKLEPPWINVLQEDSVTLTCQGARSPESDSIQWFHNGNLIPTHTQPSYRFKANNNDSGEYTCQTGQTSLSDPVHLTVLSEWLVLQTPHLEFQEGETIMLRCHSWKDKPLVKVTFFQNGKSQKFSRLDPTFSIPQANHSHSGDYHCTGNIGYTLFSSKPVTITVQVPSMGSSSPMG

T2: human FcγRIIaH extracellular domain, His-tagged (human, UniProt P12318 34-217)
T2 construct: also called human FcgRIIaH; FcγRIIa (type H); not shown: His-tag added to the C-terminus
T2 sequence: T1 chain with R134H

T3: cynomolgus monkey FcγRIIa1 extracellular domain, His-tagged (cynomolgus monkey)
T3 construct: also called cyno FcgRIIa1; cynoFcγRIIa1; not shown: His-tag added to the C-terminus
T3 chain: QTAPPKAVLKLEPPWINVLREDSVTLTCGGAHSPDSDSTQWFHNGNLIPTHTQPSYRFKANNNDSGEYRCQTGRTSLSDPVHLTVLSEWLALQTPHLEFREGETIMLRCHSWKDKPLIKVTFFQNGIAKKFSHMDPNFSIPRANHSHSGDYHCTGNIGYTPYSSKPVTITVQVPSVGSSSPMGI

T4: cynomolgus monkey FcγRIIb extracellular domain, His-tagged (cynomolgus monkey)
T4 construct: also called cyno FcgRIIb; cynoFcγRIIb; not shown: His-tag added to the C-terminus
T4 chain: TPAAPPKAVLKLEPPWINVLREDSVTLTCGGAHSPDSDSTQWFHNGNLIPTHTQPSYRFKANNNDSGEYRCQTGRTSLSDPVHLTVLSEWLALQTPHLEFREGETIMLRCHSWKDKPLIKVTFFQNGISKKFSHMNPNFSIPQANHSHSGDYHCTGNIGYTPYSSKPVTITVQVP

T5: cynomolgus monkey FcγRIIa3 extracellular domain, His-tagged (cynomolgus monkey)
T5 construct: also called cyno FcgRIIa3; cynoFcγRIIa3; not shown: His-tag added to the C-terminus
T5 chain: T3 chain with P95T, T121A, A128S, H133P, D135N

T6: human FcγRIIb extracellular domain, His-tagged (human, UniProt P31994 43-217)
T6 construct: also called human FcgRIIb; not shown: His-tag added to the C-terminus
T6 sequence: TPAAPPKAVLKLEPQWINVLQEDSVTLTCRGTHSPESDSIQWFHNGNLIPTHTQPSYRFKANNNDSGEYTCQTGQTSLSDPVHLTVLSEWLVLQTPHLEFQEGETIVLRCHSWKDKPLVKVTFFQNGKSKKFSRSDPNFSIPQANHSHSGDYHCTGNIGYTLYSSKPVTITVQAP

B1: MS1032LO06-SG1 (M103205H795-SG1/M103202L889-SK1) (antibody, human IgG1, kappa)
heavy: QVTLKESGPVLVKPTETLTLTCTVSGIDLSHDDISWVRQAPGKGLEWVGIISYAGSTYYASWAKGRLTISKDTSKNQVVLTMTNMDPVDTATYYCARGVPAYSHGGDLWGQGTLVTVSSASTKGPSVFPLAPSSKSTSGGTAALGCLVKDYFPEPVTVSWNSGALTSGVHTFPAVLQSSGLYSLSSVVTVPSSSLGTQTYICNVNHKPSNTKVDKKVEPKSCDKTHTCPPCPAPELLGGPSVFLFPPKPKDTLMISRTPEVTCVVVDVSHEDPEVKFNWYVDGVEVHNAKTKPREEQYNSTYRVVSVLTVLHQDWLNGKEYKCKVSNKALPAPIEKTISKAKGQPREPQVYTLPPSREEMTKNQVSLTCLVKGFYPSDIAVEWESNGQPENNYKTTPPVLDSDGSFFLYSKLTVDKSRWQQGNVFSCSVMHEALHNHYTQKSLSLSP
light: DIVMTQSPATLSLSPGERATLSCTSSQSVYHANWLSWFQQKPGQPPKLLIYWASTLAYGVPSRFSGSGSGTDFTLTISSLQPEDAATYYCAGGYGGGRYAFGQGTKVEIKRTVAAPSVFIFPPSDEQLKSGTASVVCLLNNFYPREAKVQWKVDNALQSGNSQESVTEQDSKDSTYSLSSTLTLSKADYEKHKVYACEVTHQGLSSPVTKSFNRGEC
notes: Anti-latent myostatin antibody; Parent of the Fc variants; copies: 2 + 2
B2: M103205H795-MY262/M103202L889-SK1 (antibody, human IgG1, kappa)
heavy: QVTLKESGPVLVKPTETLTLTCTVSGIDLSHDDISWVRQAPGKGLEWVGIISYAGSTYYASWAKGRLTISKDTSKNQVVLTMTNMDPVDTATYYCARGVPAYSHGGDLWGQGTLVTVSSASTKGPSVFPLAPSSKSTSGGTAALGCLVKDYFPEPVTVSWNSGALTSGVHTFPAVLQSSGLYSLSSVVTVPSSSLGTQTYICNVNHKPSNTKVDKKVEPKSCDKTHTCPPCPAPELLVGPSVFLFPPKPKDTLMISRTPEVTCVVVDVSDEDPEVKFNWYVDGVEVHNAKTKPREEQYNSTYRVVSVLTVLHQDWLNGKEYKCKVSNKALPKPIEKTISKAKGQPREPQVYTLPPSREEMTKNQVSLTCLVKGFYPSDIAVEWESNGQPENNYKTTPPVLDSDGSFFLYSKLTVDKSRWQQGNVFSCSVMHEALHNHYTQKSLSLSP
light: B1 light
notes: copies: 2 + 2
B3: M103205H795-MY260/M103202L889-SK1 (antibody, human IgG1, kappa)
heavy: B2 heavy with V238M
light: B1 light
notes: copies: 2 + 2
B4: M103205H795-MY261/M103202L889-SK1 (antibody, human IgG1, kappa)
heavy: B2 heavy with V238H
light: B1 light
notes: copies: 2 + 2
B5: M103205H795-MY264/M103202L889-SK1 (antibody, human IgG1, kappa)
heavy: B2 heavy with V238L
light: B1 light
notes: copies: 2 + 2
B6: M103205H795-MY267/M103202L889-SK1 (antibody, human IgG1, kappa)
heavy: B2 heavy with V238I
light: B1 light
notes: copies: 2 + 2
B7: M103205H795-MY265/M103202L889-SK1 (antibody, human IgG1, kappa)
heavy: B2 heavy with V238T
light: B1 light
notes: copies: 2 + 2
B8: M103205H795-MY263/M103202L889-SK1 (antibody, human IgG1, kappa)
heavy: B2 heavy with V238Q
light: B1 light
notes: copies: 2 + 2
B9: M103205H795-MY201/M103202L889-SK1 (antibody, human IgG1, kappa)
heavy: B2 heavy with V238N
light: B1 light
notes: Fc variant G236N/H268D/A330K (EU numbering) of SG1; also called MS1032LO06-MY201; copies: 2 + 2

Target: T1, human FcγRIIaR extracellular domain, …
Assay: SPR (BIACORE), antibody captured, FcγR as analyte, 25°C
Procedure: (§1) The kinetic analysis of interactions between these antibodies and FcγR was carried out using BIACORE® T200 or BIACORE® 4000 (GE Healthcare). HBS-EP+ (GE Healthcare) was used as the running buffer, and the measurement temperature was set to 25° C. A chip produced by immobilizing Protein A. Protein A/G or mouse anti-human IgG kappa light chain (BD Biosciences) onto a Series S Sensor Chip CM4 or CM5 (GE Healthcare) by the amine-coupling method was used. […] After the measurement, the antibody captured on the chip was washed off by allowing reaction with 10 mM glycine-HCl, pH1.5 and 25 mM NaOH so that the chip was regenerated and used repeatedly. The sensorgrams obtained as measurement results were analyzed by the 1:1 Langmuir binding model using the BIACORE® Evaluation Software to calculate the binding rate constant ka (L/mol/s) and dissociation rate constant kd (l/s), and the dissociation constant KD (mol/L) was calculated from these values. […] Regarding such interactions, KD values were calculated using the following 1:1 binding model described in BIACORE® T100 Software Handbook BR1006-48 Edition AE.
(§2) The behavior of interacting molecules according to the 1:1 binding model on BIACORE® can be described by Equation 1: Req=C·R max/(KD+C)+RI, wherein, Req is a plot of steady-state binding levels to analyte concentration. C is concentration, RI is bulk refractive index contribution in the sample, and Rmax is analyte binding capacity of the surface. When this equation is rearranged, KD can be expressed as Equation 2: KD=C·Rmax/(Req−RI)−C. KD can be calculated by substituting the values of Rmax, RI, and C into Equation 1 or Equation 2. From the current measurement conditions, RI=0, C=2 μmol/L can be used.

| Kd [nM] | Binder |
| --- | --- |
| 1100 | B1 |
| 710 | B2 |
| 1800 | B3 |
| 1100 | B4 |
| 2300 | B5 |
| 720 | B6 |
| 440 | B7 |
| 710 | B8 |
| 1900 | B9 |

What follows are binders tested against T2, human FcγRIIaH extracellular domain, … in the same assay as above.
Procedure: as §1, §2

| Kd [nM] | Binder |
| --- | --- |
| 690 | B1 |
| 140 | B2 |
| 910 | B3 |
| 240 | B4 |
| 1500 | B5 |
| 200 | B6 |
| 210 | B7 |
| 320 | B8 |
| 910 | B9 |

Target: T3, cynomolgus monkey FcγRIIa1 …
Assay: SPR; KD of SG1 divided by KD of the variant;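 also: relative to parent M103205H795-SG1 carrying the SG1 human heavy chain constant region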
Procedure: (§3) Regarding such interactions, KD values were calculated using the following 1:1 binding model described in BIACORE® T100 Software Handbook BR1006-48 Edition AE.
as §2
(§4) The resultant variants were expressed using M103202L889-SK1 as light chain and their affinity to human and cynoFcγRs were evaluated (Table 21).

| KD fold (SG1 = 1) [fold] | Binder |
| --- | --- |
| 1 | B1 |
| 1.7 | B2 |
| 0.7 | B3 |
| 0.9 | B4 |
| 0.6 | B5 |
| 1.3 | B6 |
| 1.5 | B7 |
| 1 | B8 |
| 2.3 | B9 |

Target: T1, human FcγRIIaR extracellular domain, …
Assay: SPR; KD of SG1 divided by KD of the variant;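 also: relative to parent M103205H795-SG1 carrying the SG1 human heavy chain constant region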
Procedure: as §3, §2, §4

| KD fold (SG1 = 1) [fold] | Binder |
| --- | --- |
| 1 | B1 |
| 1.5 | B2 |
| 0.6 | B3 |
| 1 | B4 |
| 0.5 | B5 |
| 2.5 | B6 |
| 2.5 | B7 |
| 1.5 | B8 |
| 0.6 | B9 |

The binders below were run against T2, human FcγRIIaH extracellular domain, … (assay: SPR; KD of SG1 divided by KD of the variant;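 also: relative to parent M103205H795-SG1 carrying the SG1 human heavy chain constant region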).
Procedure: as §3, §2, §4

| KD fold (SG1 = 1) [fold] | Binder |
| --- | --- |
| 1 | B1 |
| 4.9 | B2 |
| 0.8 | B3 |
| 2.9 | B4 |
| 0.5 | B5 |
| 3.5 | B6 |
| 3.3 | B7 |
| 2.2 | B8 |
| 0.8 | B9 |

Target: T4, cynomolgus monkey FcγRIIb extracellular …
Assay: SPR; KD of SG1 divided by KD of the variant;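 also: relative to parent M103205H795-SG1 carrying the SG1 human heavy chain constant region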
Procedure: as §3, §2, §4

| KD fold (SG1 = 1) [fold] | Binder |
| --- | --- |
| 1 | B1 |
| 3.2 | B2 |
| 1.1 | B3 |
| 1.2 | B4 |
| 0.7 | B5 |
| 2.1 | B6 |
| 3.1 | B7 |
| 1.8 | B8 |
| 4.2 | B9 |

The binders below were run against T7, cynomolgus monkey FcγRIIIaS extracellular domain, His-tagged (cynomolgus monkey, UniProt A3RFZ7 21-206 (rhesus entry)) (assay: SPR; KD of SG1 divided by KD of the variant).
T7 construct: also called cyno FcgRIIIaS; cynoFcγRIIIaS; not shown: His-tag added to the C-terminus
T7 sequence (A3RFZ7 21-206): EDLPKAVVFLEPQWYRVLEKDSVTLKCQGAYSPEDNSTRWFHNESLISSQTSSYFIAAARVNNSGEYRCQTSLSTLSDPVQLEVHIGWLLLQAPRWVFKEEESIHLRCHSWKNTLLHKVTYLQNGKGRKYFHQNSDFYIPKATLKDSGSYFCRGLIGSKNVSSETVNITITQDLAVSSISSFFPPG
Procedure: as §3, §2, §4

| KD fold (SG1 = 1) [fold] | Binder |
| --- | --- |
| 1 | B1 |
| 0.13 | B2 |
| 0.55 | B3 |
| 0.15 | B4 |
| 0.1 | B5 |
| 0.13 | B6 |
| 0.18 | B7 |
| 0.46 | B8 |
| 0.06 | B9 |

Target: T5, cynomolgus monkey FcγRIIa3 …
Assay: SPR; KD of SG1 divided by KD of the variant
Procedure: as §3, §2, §4

| KD fold (SG1 = 1) [fold] | Binder |
| --- | --- |
| 1 | B1 |
| 2.1 | B2 |
| 1.2 | B3 |
| 3.1 | B4 |
| 1.1 | B5 |
| 2.3 | B6 |
| 3.5 | B7 |
| 2.3 | B8 |
| 4.4 | B9 |

Each binder was assayed against T6, human FcγRIIb extracellular domain, … (assay: SPR; KD of SG1 divided by KD of the variant).
Procedure: as §3, §2, §4

| KD fold (SG1 = 1) [fold] | Binder |
| --- | --- |
| 1 | B1 |
| 0.8 | B2 |
| 0.8 | B3 |
| 0.9 | B4 |
| 0.4 | B5 |
| 0.8 | B6 |
| 2.1 | B7 |
| 1.3 | B8 |
| 4.2 | B9 |

From patent publication US20200317768A1 (published 2020)
